Results: article PMC6173795, “The FapF Amyloid Secretion Transporter Possesses an Atypical Asymmetric Coiled Coil” (Journal of Molecular Biology, 2018)

B1: FapFCC synthetic peptide (predicted coiled-coil region of FapF, residues 3-40) (peptide)
chain: DVDIETLKQELLELKQRYEAQQKALAVLEQRVRQVEDQ
notes: FapF amyloid secretion transporter of Pseudomonas, coiled-coil region, residues 3-40; Parallel trimer; six chains (two trimers) in the asymmetric unit of the crystal; also called FapFCC peptide; periplasmic domain of FapF; source: synthetic peptide (ChinaPeptides, 97.5% purity)
B2: recombinant FapF3-40 (FapFCC), wild type (domain or fragment, Pseudomonas UK4)
chain: B1 chain
notes: Cloned into pNIC28-Bsa4 (vector: Addgene plasmid no. 26103); also called recombinant FapFCC; not shown: His6, N-terminal, cleaved

Legend:
[1] = molecular target: the molecule itself; assay: crystal structure; synthetic peptide at 10 mg/ml; 0.2 M zinc acetate dihydrate, 0.1 M sodium cacodylate pH 6.5, 10% v/v 2-propanol; data processed in P1, six chains in the asymmetric unit
[2] = molecular target: the molecule itself; assay: SEC-MALS; Superdex 75 10/300 GL, phosphate buffer (20 mM PO4, 150 mM NaCl, pH 6.8), 100 ul FapF3-40 samples at 1 mg/ml, 0.25 ml/min; size exclusion profiles of wild type, R33A and R33E

Protein	stoichiometry N [1]	stoichiometry N [2]
B1	3	–
B2	–	3
